Source: publication PMC8465381, “Dopamine-Conjugated Carbon Dots Inhibit Human Calcitonin Fibrillation” (Nanomaterials, 2021)
Positions of bridges follow the written chain, without caps; N, C: chain ends. No end group written: not given here.

Target: the molecule itself
Test: thioflavin-T fluorescence kinetics + TEM; 64 μM hCT alone, 50 mM phosphate buffer pH 7.4, 16 μM ThT, 1% DMSO, 25 °C, 384-well nonbinding plate with agitation every 2 h; end products negatively stained for TEM; fibril formation (self-assembly)

B1: Human calcitonin (peptide, UniProt P01258 85-116, looked up)
peptide: CGNLSTCMLGTYTQDFNKFHTFPQTAIGVGAP-NH2
modifications: disulfide 1-7
notes: human calcitonin, 32-residue hormone peptide cut from the calcitonin precursor; numbers count on: the mature protein; Forms amyloid fibrils; preformed fibrils of the same peptide were used as seeds; also called hCT; source: synthetic peptide (Fmoc solid-phase synthesis, RP-HPLC purified)
B1: binds.
